Measurements taken from patent US20110008406A1.

Key:
[1] = target: T1, silk fibroin, sericin-depleted, from degummed Bombyx mori silk (dissolved in 9.3 M LiBr, dialysed, then gelled or precipitated) (Bombyx mori), P05790; experiment: HPLC and dry mass of silk precipitates, over all formulations
[2] = target: T1, silk fibroin, sericin-depleted, from …; experiment: HPLC of 23RGD extracted from the final rinsed 23RGD-enhanced silk gel
[3] = target: T1, silk fibroin, sericin-depleted, from …; experiment: HPLC of 23RGD extracted from lyophilized silk precipitate, formulation RHI
[4] = target: T1, silk fibroin, sericin-depleted, from …; experiment: HPLC of 23RGD extracted from lyophilized silk precipitate, formulation AVHI
[5] = target: T1, silk fibroin, sericin-depleted, from …; experiment: HPLC of 23RGD extracted from lyophilized silk precipitate, formulation AVLO
[6] = target: T1, silk fibroin, sericin-depleted, from …; experiment: HPLC of 23RGD extracted from lyophilized silk precipitate, formulation BASE
[7] = target: T1, silk fibroin, sericin-depleted, from …; experiment: HPLC of 23RGD extracted from lyophilized silk precipitate, formulation SCLO
[8] = target: T1, silk fibroin, sericin-depleted, from …; experiment: HPLC of 23RGD extracted from lyophilized silk precipitate, formulation SCVLO
[9] = target: T1, silk fibroin, sericin-depleted, from …; experiment: HPLC of 23RGD extracted from silk precipitates; plateau over the formulations
[10] = target: T1, silk fibroin, sericin-depleted, from …; experiment: HPLC of 23RGD extracted from lyophilized silk precipitate, formulation 0.6S 3R 10:1
[11] = target: T1, silk fibroin, sericin-depleted, from …; experiment: HPLC of 23RGD extracted from lyophilized silk precipitate, formulation printed as RLO
[12] = target: T1, silk fibroin, sericin-depleted, from …; experiment: HPLC of 23RGD extracted from lyophilized silk precipitate, formulation printed as RMED
[13] = target: T1, silk fibroin, sericin-depleted, from …; experiment: HPLC of 23RGD extracted from silk precipitate, formulation AVLO, against the calculated molar ratio
[14] = target: T1, silk fibroin, sericin-depleted, from …; experiment: HPLC of 23RGD extracted from silk precipitate, formulation BASE, against the calculated molar ratio
[15] = target: T1, silk fibroin, sericin-depleted, from …; experiment: HPLC of 23RGD extracted from silk precipitate, formulation ECLO, against the calculated molar ratio
[16] = target: T1, silk fibroin, sericin-depleted, from …; experiment: HPLC of 23RGD extracted from silk precipitate, formulation SCLO, against the calculated molar ratio
[17] = target: T1, silk fibroin, sericin-depleted, from …; experiment: HPLC of 23RGD extracted from silk precipitate, formulation printed as RMED, against the calculated molar ratio

In the case of GRGDIPASSKGGGGSRLLLLLLR (modifications not checked) [23RGD peptide (amphiphilic peptide: RGD motif, spacer region, leucine tail; 23 amino acids)], the percent of 23RGD precipitated with silk [1] is reported as 5 to 30%, the 23RGD:silk molar ratio (bound) (mol 23RGD per mol silk) [2] is reported as 3.35 and the 23RGD:silk ratio (bound) (mol 23RGD per mol silk) [3] is reported as 10.7. The 23RGD:silk ratio (bound) (mol 23RGD per mol silk) [4] was 10.5, the 23RGD:silk ratio (bound) (mol 23RGD per mol silk) [5] was 5.2 and the 23RGD:silk ratio (bound) (mol 23RGD per mol silk) [6] was 8.7. For the same binder, the 23RGD:silk ratio (bound) (mol 23RGD per mol silk) [7] was 9.9, the 23RGD:silk ratio (bound) (mol 23RGD per mol silk) [8] was 11 and the apparent saturation, RGD molecules per molecule of silk (mol 23RGD per mol silk) [9] was 10. For the same binder, the 23RGD:silk ratio (bound) (mol 23RGD per mol silk) [10] was 10, the 23RGD:silk ratio (bound) (mol 23RGD per mol silk) [11] was 1.1 and the 23RGD:silk ratio (bound) (mol 23RGD per mol silk) [12] was 6.95. For the same binder, the bound RGD, fold of the calculated (expected) amount [13] was 2 fold, the bound RGD, fold of the calculated (expected) amount [14] was 2 fold and the bound RGD, fold of the calculated (expected) amount [15] was 1.5 fold. For the same binder, the bound RGD, fold of the calculated (expected) amount [16] was 2 fold and the bound RGD, fold of the calculated (expected) amount [17] was 2 fold.
